Measured values taken from patent publication US20030103948A1 (NEORX, published 2003).

Target: T1, CD20 (human, UniProt P11836 1-297)
T1 construct: whole, on cells; also called CD20-positive Ramos cell line; Ramos cells
T1 sequence (looked up): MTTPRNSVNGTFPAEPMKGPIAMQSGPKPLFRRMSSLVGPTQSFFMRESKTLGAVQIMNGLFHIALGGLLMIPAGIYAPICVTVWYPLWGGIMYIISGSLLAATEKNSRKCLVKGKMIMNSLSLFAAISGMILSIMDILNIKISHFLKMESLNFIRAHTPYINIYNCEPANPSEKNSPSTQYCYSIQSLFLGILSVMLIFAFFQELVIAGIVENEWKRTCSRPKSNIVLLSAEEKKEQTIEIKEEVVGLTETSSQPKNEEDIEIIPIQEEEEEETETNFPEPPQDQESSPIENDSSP
Assay: saturation binding of radiolabeled antibody to Ramos cells (10^7 cells), nonlinear regression
Protocol: Avidity was determined using saturation binding experiments that measure specific binding of radiolabeled mAb or fusion protein (0.025-50 ng/ml) at equilibrium in the presence of excess antigen (10⁷ cells). Nonspecific binding was determined in the presence of excess cold mAb or fusion protein (50 μg/ml). […] The equilibrium dissociation constant (Kd) was calculated from nonlinear regression analysis of nM bound vs. nM radioligand using immunoreactivity-adjusted antibody concentrations.
Kd and Kₐ were calculated using nonlinear regression analysis of nM bound vs. nM radioligand.

B1: B9E9 mAb (antibody, V domains shown)
VH: QVQLVQSGAELVKPGASVKMSCKASGYTFTSYNMHWVKQTPGQGLEWIGAIYPGNGDTSYNQKFKGKATLTADKSSSTAYMQLSSLTSEDSAVYYCARAQLRPNYWYFDVWGAGTTVTVSS
VL: DIVLSQSPAILSASPGEKVTMTCRASSSVSYMHWYQQKPGSSPKPWIYATSNLASGVPARFSGSGSGTSYSLTISRVEAEDAATYYCQQWISNPPTFGAGTKLELK
modifications: Used unlabelled, fluorescein-labelled (FACS tracer) and radiolabelled (avidity assay).
notes: also called divalent B9E9 antibody; murine anti-CD20 antibody B9E9
- Ka: 1.02e+08 M⁻¹
- Kd: 9.75 nM
